The assay has as its target Spike protein of SARS-CoV-2 (isolate USA-WA1/2020) (SARS-CoV-2) (UniProt P0DTC2). Briefly: cell-based or functional assay.

This passage reports neutralization EC50 (viability of Vero E6 cells by CellTiter-Glo, 72 h after infection) results from patent US20250320302A1.

On to S309 (antibody), for which the neutralization EC50 (viability of Vero E6 cells by CellTiter-Glo, 72 h after infection) was 0.858 µg/mL.
